The data set in a line: soluble fraction after stress (log2 fold change); higher = more stays soluble; pooled small domains, quantitative proteomics. The settings on record: stress: 50 degC. The gist of the method: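 The stress applied to every library was 50°C. These custom libraries of small protein domains were pooled and measured at high throughput with quantitative proteomics as the read-out. Aggregation propensity is expressed as the base-two logarithm of the fold change in how much of each protein remains soluble. The higher the value, the more of that protein stays in solution.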
As to “HMDYNMEEWSLTADQLKSGDTILILNLGKTATLLESTRGKKNVRVRMGNIKTIVETSSIRGNPHQ”, the “soluble fraction (log2)” value is -0.878. The same measure for “HMTVTISPGYEGRLLRSYLKNTLSLSTSALARLKTREDGITVNGVRVTVRYVLHAGDLLQLAVD”: -0.597; for “HMDTRSSARKALDAVNLLLETYGAKAYQHSYEIAGRRQQFQTPGDFMAFRSRLMAEVATEENAARINA”: 0.152; for “HMDKENVLQLQKDLLRLSVNALEKRYYQFSDILLLKYILPLVPKEISIDDQSRLRSLLSGIN”: -0.238. On to “HMAVQPMDQVKAWLAEDNPADIKLLVPVLQKLDLLDYEQVRGEVADRAGVRKSLLDEAVKGN”, for which the “soluble fraction (log2)” value came out at 0.0999. In the case of “HMQADTATITGNGVNMRSGPGTNYQIIDTIPKGTVAEVLSQQDGWVKIYSARISGWVSASYVEIKQT”, the “soluble fraction (log2)” value was -0.356.

Regarding “HMALRFMAYGRINGTNVHFRTGASASTASLGRYSRGTEFGVYDKIGGWYRVRLLSTGQEGYVYSRYLTLTG”, the “soluble fraction (log2)” value is -2.67. As to “HMQETMTNDEVISLTKAGLSSSIIIGKIRSSATNFDLSTDSLIKLKQAGVSDETVAAMLEAKS”, the “soluble fraction (log2)” value was 0.0855. Turning to “HMEKILSYKALMNDAGKRIDQFLANNEKDISRTRIKSLILEGSLKLDNNIINDPSYKIKENDVFTLFIPEA”, the “soluble fraction (log2)” value is -0.429. Regarding “HMAEPYDERKVMEQMIPKGKNTIVAHLGHLKDHGETGYLQEALSYLRERESELGFDLKEVRALVHN”, the “soluble fraction (log2)” value is 0.251. With “HMNTETAVTKAIDQIQVMMDLRNRSVSFTRDQETGTDIIKVIDDNTGDTIRQMPSEELLTFMKNLTQ”, the “soluble fraction (log2)” value was 0.147.

Turning to “HMQSEESTHIGERMLNQALRAMHVEPSAVKEKQWEKLIRDYSVKNKQDILTDIGLGKRQSVMVAHQLLAI”, the “soluble fraction (log2)” value is 0.0574. In the case of “HMKNAYDLKMLVKDNDGNIERNMKYYFFLANGSKVEGITDDNGYTKTITTIQPEKADLHLINDELI”, the “soluble fraction (log2)” value was -1.1. In the case of “HMLTTMSSQWKPSLDAIEILEKSGIAYSFIEDAIPEFVLYWRERGISHGAWNTKFVEHIRKQWAKFEAS”, the “soluble fraction (log2)” value was -1.35. In the case of “HMPTEAIVLQQIQIRQSPSGNSKSLQQILPGAKIKITSESSVKGWKQVSLDGGQKGWIPTAAIGL”, the “soluble fraction (log2)” value is -0.0262. Regarding “HMPKLTKEEIQFIDNYLKNSGVEYIDTRAEVVDHVASEIESRLSANNTTNFYEEFKVYMVQHKETLLK”, the “soluble fraction (log2)” value is -0.49. “HMLSVRQRMGELLERLADGQFHRFESLFTVEEGKLGVVVTFLGLLTLAKEQLLDIVQEGPTAPIYVKSLA”: the “soluble fraction (log2)” value was -0.437. The same measure for “HMTAYEGLPVTLIIDGRVFQQNLQKMNLSVEWLRLELKKFGVTNLKEVLFASLDTEGKLFYQLKT”: 0.0485. “HMDTNKMLIVNSISNGMKRLQELQDPQLAEIQKTFSGLDEQKATSAQLAQINNIINNRIAEIEG”: the “soluble fraction (log2)” value is 0.145. The same measure for “HMSLPKVLVPTDITVSQLAKYLEVDAIAIVKKLFGLGVVASLNQRLENEQMQLLGQEFGKDIIFTEN”: -0.438; for “HMNVPATAEAYEALLADAESVGKSLWGHEAKRFAAEQALLSAGLREVIQVDPDKARELALRLRGLLDEYRG”: 0.13; for “HMGGVEWLTHPIGPRDSLQVLARAGLEARPTSDGDYEIYGQERWPQRDQARLMGWLRRFGQWVWQALYDK”: -0.378.

Regarding “HMFTDEELEHIRSALIQAGIRLSKELGLQKMSVEKLTAAVGIAKGSFYMFFGSKEDFILEVAEYTGAQ”, the “soluble fraction (log2)” value was -0.582. As for “HMDLPGIVTETDRQRADLAARIGAAKVEAVLAGGARSVEADEDFDADTRRELHQFLTRMARRAFLEER”, the figure is -0.0484; as for “HMAEGPYSGKKVEKYPGGMEKRETMYSEGKLTRVTEFHQSGQKKMEVKVDANGQWKRLYWDNNGNPT”, 0.07.

As to “HMLKEDSAYELGLRIFDQALNDYGTSFIDLKEDEYKKVLSIYGYSNPRQLIINIGLGNVIPHLLARDITE”, the “soluble fraction (log2)” value is -1.23.

With “HMDITGIGIKKRIKAIIDSEDKKNPLSDTQIVEILKNEGLEISRRTVAKYRSDLQIPSSSKRKK”, the “soluble fraction (log2)” value was determined as 0.403. As for “HMKNEFRVYPNPANKEIVTFNQTQDIEVYDTLGKLVLKAKNTNTLDTKSFHSGIYFIKTGSGLTRKLVV”, the figure is 0.107. “HMKDIIVDPQGQYNHPGVPTRIPSSDITMKGVGYPVLGIADNGQKQMMQPGQDYKFPGAKYVDEYPQM”: the “soluble fraction (log2)” value stood at 0.137. Take “HMNDRERIGKRIAQLRMEAGISQYKLAELTGLAPGNIARIETGKYSTGIDILSKIGDALGYQLDFI”: the “soluble fraction (log2)” value is -1.04.

As to “HMATSNDTQITGSLALRFDGSGDTFTVNVNGDDKLEINTEGTVIYKPLTTAPTYVSGGLFFSSSGDFYVG”, the “soluble fraction (log2)” value was -0.0386. In the case of “HMTKTSQEDEDIMRHLDELHTRWPFLGQRKLIEELKDQGIQIGRKRLRRLMKVMGIEAIAPK”, the “soluble fraction (log2)” value was -1.29. As to “HMDNAILQELYDYYKEDPSLSQSELIISMLTRIQEAVGYVSKDVQEEVARLAGVNRGYVAAIIKNLPHL”, the “soluble fraction (log2)” value was -0.747. Turning to “HMNDLKEDTITVQSVEYIDSDDGTMVYIKDTNHQVYKQAFKEDESLIRISAGDVLHVKYQPMDNEIHLL”, the “soluble fraction (log2)” value was -0.364. “HMNADAIIGRMGKVTEPITPDGYGRVEIDGDSWKATAVGGVAIAEGTRVSVVSLDSIIITVKTV”: the “soluble fraction (log2)” value is -0.293. With “HMPFDRTVQLAGARARQLQALPRYREVLRLLDEGMNPREIGQVLDPPVTRQRASALIQQAKRAQMLGLFED”, the “soluble fraction (log2)” value was -0.857. As for “HMRDDAIQQGREIVERELHRLDLAYTTLTDVLAKLEYEKLDDLYAAVGFGIRSPHSVAAAALQVERDKA”, the “soluble fraction (log2)” value was -0.569. On to “HMLLTPLEETRLVIEEIVIPQKLTIDLLPRSSAIRKLQHELITHYQLRGTSVGNEPNRRLRIYP”, for which the “soluble fraction (log2)” value is -0.244. In the case of “HMESLGEKIKNIRISNNLKQSELADILHISEKTISSWENNRTTPDLNMIYKISNYFKKSFYYLISDDYI”, the “soluble fraction (log2)” value is -1.02. For the sequence “HMSRMLTVKQREVFDLAMREGYWETPRRITLTMLASLLSVSKSTLSVQLHKIEGTVLSSFSDEVRRRS”, the “soluble fraction (log2)” value is -1.49. The same measure for “HMIINLGELLKMLEVNKYQDAMDALDSLIEEGGSLEKIESLHEIRQHTHAMNFREAERLLSILIESEGA”: -0.746; for “HMTMRFVVADGQNFGSIAQSKALEAVKKGNTEFNYKDVDYTVDIQSDDFYVVYQGRDIMGYASR”: -2.

As for “HMVITISEADVSGTYTKSITQGDWKYIRTWTPFEDERLYDLAKDPMELRDLAPAAPSKLAELRELLSALVS”, the “soluble fraction (log2)” value is -1.51. For “HMPVVKIPFILTEGPSSITKVIEIDADEILELKDVFQEDDKLWSINQIEMNDGRYVKHSDASLIVRASALR”, the “soluble fraction (log2)” value stood at 0.066. As to “HMDKPIVFLEDTKAHKSSDLQSPVYMTVPKGTIAFVIAEKGDWSQVYAGRVLDRNLASQWVRRGFS”, the “soluble fraction (log2)” value is 0.227. For “HMHSLGDQVFETIKELIVNNTYQPGELLQIDKLAAEFGVSTTPVREALLRLEGLGLVDIERNKAAVVT”, the “soluble fraction (log2)” value is -0.112. For the sequence “HMESSSQLGFELARLVESGNDEEARALVQAKELSEADERKWLYHLGNLLHAAGRPLQASAIWREVGT”, the “soluble fraction (log2)” value stood at 0.0628. As for “HMSEFAYPISLNGKTKFNLALSLALTKEEIEKEVLANADVQKFLNGQTPKKLIVVPGKIVNVV”, the “soluble fraction (log2)” value was -0.322. As for “HMNEWSIDINLADEKQWTAKTKLSPAIIQNIIRYKNYLGGFTNLNQIKKVYGFTEANYYLLKPHLQLGK”, the “soluble fraction (log2)” value was -0.909. With “HMEAVGLTPRQGDVLALLLQGKPNKLIARDLNLSVETVKDHVAAVLRALGVSTRTQAVLAVSQMQQQAAQ”, the “soluble fraction (log2)” value was -0.248.
